Square brackets hold non-standard residues; d marks the D form. Ends that are not written are not given here. Tyr(3-NO2) = N[C@@H](Cc1ccc(O)c([N+](=O)[O-])c1)C(=O)O; Nle = CCCC[C@H](N)C(=O)O; 2Abz = Nc1ccccc1C(=O)O
How the values were obtained:
Format in all cases: biochemical
[1] = target: T1, matriptase (Homo sapiens, UniProt Q9Y5Y6); test: FRET peptide cleavage efficiency with matriptase
T1 construct: purchased R&D Systems 3946-SEB
T1 sequence (Q9Y5Y6 615-855 limits assumed): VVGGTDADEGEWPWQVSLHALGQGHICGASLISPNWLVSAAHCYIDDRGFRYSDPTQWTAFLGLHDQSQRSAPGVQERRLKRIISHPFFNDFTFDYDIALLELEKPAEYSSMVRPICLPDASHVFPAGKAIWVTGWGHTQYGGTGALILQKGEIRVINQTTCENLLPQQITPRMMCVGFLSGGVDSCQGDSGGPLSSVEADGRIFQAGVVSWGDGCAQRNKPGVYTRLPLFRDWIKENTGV

[2] = target: T2, MMP-2 (Homo sapiens, UniProt P08253); test: FRET peptide cleavage efficiency with MMP-2
T2 construct: purchased SIGMA PF023
T2 sequence (P08253 110-660): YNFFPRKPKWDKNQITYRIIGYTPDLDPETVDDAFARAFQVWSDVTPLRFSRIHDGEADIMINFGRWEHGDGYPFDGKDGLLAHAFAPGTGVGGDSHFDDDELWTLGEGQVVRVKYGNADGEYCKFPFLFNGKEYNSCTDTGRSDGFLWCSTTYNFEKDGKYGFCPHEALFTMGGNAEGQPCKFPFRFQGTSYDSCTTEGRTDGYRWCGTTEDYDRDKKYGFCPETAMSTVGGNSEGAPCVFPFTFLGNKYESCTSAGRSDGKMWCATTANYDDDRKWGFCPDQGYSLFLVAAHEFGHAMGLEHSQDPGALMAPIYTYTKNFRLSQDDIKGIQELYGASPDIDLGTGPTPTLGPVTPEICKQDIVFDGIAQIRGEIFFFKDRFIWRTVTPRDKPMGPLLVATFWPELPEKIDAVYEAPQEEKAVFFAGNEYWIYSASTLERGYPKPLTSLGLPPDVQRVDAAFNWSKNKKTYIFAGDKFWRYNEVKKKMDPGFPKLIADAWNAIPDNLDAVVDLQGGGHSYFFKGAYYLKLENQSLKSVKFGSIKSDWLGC

[3] = target: uPA (Homo sapiens, UniProt P00749); test: FRET peptide cleavage efficiency with uPA
[4] = 200 uM linker, 1 ug/ml protease, 37° C., buffer B pH 9.0
[5] = 200 uM linker, 1 ug/ml protease, 37° C., buffer C pH 7.5
[6] = 200 uM linker, 1 ug/ml protease, 37° C., buffer A pH 8.5

Substance | % cleavage Matriptase t = 15 min [1, 4] | % cleavage Matriptase t = 60 min [1, 4] | % cleavage Matriptase t = 120 min [1, 4] | % cleavage MMP-2 t = 15 min [2, 5] | % cleavage MMP-2 t = 60 min [2, 5] | % cleavage MMP-2 t = 120 min [2, 5] | % cleavage uPA t = 15 min [3, 6] | % cleavage uPA t = 60 min [3, 6] | % cleavage uPA t = 120 min [3, 6] | % cleavage Matriptase t = 15 min [1] | % cleavage Matriptase t = 60 min [1] | % cleavage Matriptase t = 120 min [1] | % cleavage MMP-2 t = 15 min [2] | % cleavage MMP-2 t = 60 min [2] | % cleavage MMP-2 t = 120 min [2] | % cleavage uPA t = 15 min [3] | % cleavage uPA t = 60 min [3] | % cleavage uPA t = 120 min [3]
SGRVLPAGLVG ([2Abz]SGRVLPAGLVG[Tyr(3-NO2)]-NH2) [LNK007] | 23% | 79% | 97% | 99% | 95% | 94% | 0% | 0% | 1% |  |  |  |  |  |  |  |  | 
SGRVLPANLVG ([2Abz]SGRVLPANLVG[Tyr(3-NO2)]-NH2) [LNK015] | 25% | 78% | 96% | 94% | 99% | 98% | 0% | 0% | 1% |  |  |  |  |  |  |  |  | 
SSRVFRKPANLAG ([2Abz]SSRVFRKPANLAG[Tyr(3-NO2)]-NH2) [LNK019] | 90% | 97% | 97% | 84% | 99% | 99% | 4% | 6% | 10% |  |  |  |  |  |  |  |  | 
SGRVLRKAGPAGLVG ([2Abz]SGRVLRKAGPAGLVG[Tyr(3-NO2)]-NH2) [LNK013] | 99% | 94% | 94% | 99% | 99% | 100% | 0% | 2% | 6% |  |  |  |  |  |  |  |  | 
SPLGLAGS ([2Abz]SPLGLAGS[Tyr(3-NO2)]-NH2) [LNK030] | 0% | 0% | 0% | 67% | 100% | 99% | 0% | 0% | 0% |  |  |  |  |  |  |  |  | 
SGRVLPLGMRA ([2Abz]SGRVLPLGMRA[Tyr(3-NO2)]-NH2) [LNK023] | 38% | 92% | 99% | 96% | 98% | 98% | 2% | 2% | 3% |  |  |  |  |  |  |  |  | 
SGRVLTLRKAGPANLVG ([2Abz]SGRVLTLRKAGPANLVG[Tyr(3-NO2)]-NH2) [LNK012] | 99% | 99% | 98% | 97% | 97% | 94% | 0% | 15% | 34% |  |  |  |  |  |  |  |  | 
SGRVLTLRKAGPAGLVG ([2Abz]SGRVLTLRKAGPAGLVG[Tyr(3-NO2)]-NH2) [LNK011] | 99% | 99% | 99% | 98% | 99% | 98% | 6% | 17% | 35% |  |  |  |  |  |  |  |  | 
KWGKSAPLGLAG ([2Abz]KWGKSAPLGLAG[Tyr(3-NO2)]-NH2) [LNK026] | 97% | 86% | 86% | 69% | 98% | 98% | 0% | 1% | 3% |  |  |  |  |  |  |  |  | 
RQRRSAAPLGLAG ([2Abz]RQRRSAAPLGLAG[Tyr(3-NO2)]-NH2) [LNK028] | 97% | 86% | 79% | 72% | 99% | 99% | 0% | 1% | 2% |  |  |  |  |  |  |  |  | 
RQRRSAPLGLAG ([2Abz]RQRRSAPLGLAG[Tyr(3-NO2)]-NH2) [LNK009] | 71% | 45% | 31% | 72% | 99% | 99% | 0% | 1% | 3% |  |  |  |  |  |  |  |  | 
KLFSSKQ ([2Abz]KLFSSKQ[Tyr(3-NO2)]-NH2) [LNK072] |  |  |  | 1% | 13% | 25% |  |  |  |  |  |  |  |  |  |  |  | 
SGRVLGPANLVG (Abz-SGRVLGPANLVG[Tyr(3-NO2)]) [LNK006] |  |  |  |  |  |  |  |  |  | 19% | 71% | 92% | 98% | 98% | 96% | 0% | 0% | 1%
SGRVLPYAMTA ([2Abz]SGRVLPYAMTA[Tyr(3-NO2)]-NH2) [LNK024] | 44% | 92% | 98% | 55% | 97% | 99% | 1% | 0% | 1% |  |  |  |  |  |  |  |  | 
RQRRS-Nle-PLGLAG ([2Abz]RQRRS[Nle]PLGLAG[Tyr(3-NO2)]-NH2) [LNK025] | 97% | 84% | 77% | 64% | 97% | 98% | 0% | 1% | 2% |  |  |  |  |  |  |  |  | 
SGRVLTLRKAPWGLLE ([2Abz]SGRVLTLRKAPWGLLE[Tyr(3-NO2)]-NH2) [LNK004] | 98% | 98% | 95% | 16% | 50% | 74% | 6% | 16% | 27% |  |  |  |  |  |  |  |  | 
RYGKSAPLGLAG ([2Abz]RYGKSAPLGLAG[Tyr(3-NO2)]-NH2) [LNK027] | 99% | 97% | 98% | 66% | 99% | 99% | 3% | 9% | 17% |  |  |  |  |  |  |  |  | 
SGRVLGPAGLVG (Abz-SGRVLGPAGLVG[Tyr(3-NO2)]) [LNK005] |  |  |  |  |  |  |  |  |  | 15% | 63% | 86% | 100% | 98% | 97% | 0% | 0% | 1%
SSRGPASNRRLPLGLAG ([2Abz]SSRGPASNRRLPLGLAG[Tyr(3-NO2)]-NH2) [LNK001] | 77% | 99% | 99% | 54% | 98% | 99% | 4% | 17% | 30% |  |  |  |  |  |  |  |  | 
